Results taken from paper PMC5938748 (Molecular microbiology, 2012).
Positions count from the first letter of the chain named. Each block holds one binder with its values, some of them ahead of it.

What was measured:
[1] = biological target: T1, MutS (Bacillus subtilis, UniProt P49849 1-858); assay: 2-aminopurine fluorescence titration
T1 sequence: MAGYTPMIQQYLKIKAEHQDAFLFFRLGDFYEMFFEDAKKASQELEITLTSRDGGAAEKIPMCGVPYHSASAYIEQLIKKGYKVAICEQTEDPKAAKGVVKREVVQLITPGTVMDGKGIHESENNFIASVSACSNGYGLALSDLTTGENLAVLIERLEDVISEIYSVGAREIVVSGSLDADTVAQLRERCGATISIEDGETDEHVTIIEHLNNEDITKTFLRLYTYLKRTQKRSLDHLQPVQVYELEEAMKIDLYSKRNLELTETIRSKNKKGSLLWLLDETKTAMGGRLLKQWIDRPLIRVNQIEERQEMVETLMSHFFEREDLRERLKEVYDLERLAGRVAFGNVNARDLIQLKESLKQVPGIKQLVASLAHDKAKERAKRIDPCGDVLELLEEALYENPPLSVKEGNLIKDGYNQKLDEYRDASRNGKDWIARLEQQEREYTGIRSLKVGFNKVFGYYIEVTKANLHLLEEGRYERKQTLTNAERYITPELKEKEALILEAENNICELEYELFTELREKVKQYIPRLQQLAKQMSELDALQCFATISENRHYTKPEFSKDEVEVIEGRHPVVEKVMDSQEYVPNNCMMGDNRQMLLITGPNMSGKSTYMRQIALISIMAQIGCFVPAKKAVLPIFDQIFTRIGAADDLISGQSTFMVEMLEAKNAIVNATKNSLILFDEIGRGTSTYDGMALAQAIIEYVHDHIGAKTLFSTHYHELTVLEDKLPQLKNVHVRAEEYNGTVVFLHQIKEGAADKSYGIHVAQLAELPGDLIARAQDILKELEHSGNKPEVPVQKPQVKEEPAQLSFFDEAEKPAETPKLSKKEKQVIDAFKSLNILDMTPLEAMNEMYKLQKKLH

[2] = biological target: T2, Bacillus subtilis MutS (B. subtilis, UniProt P49849 1-858); assay: far-Western, overlay or dot blot
T2 sequence (looked up): T1 sequence

[3] = biological target: T3, Bacillus subtilis MutSF30A (B. subtilis, UniProt P49849 1-858, F30A); assay: far-Western, overlay or dot blot
T3 sequence (looked up): T1 sequence with F30A

B1: 2-AP(+T) T-bulge duplex (dsDNA)
DNA 1: TAAAGGAAGTCGTCTATATATGGTATGACTAAGTGTA
DNA 2: TACACTTAGTCATACCATTATAGACGACTTCCTTTA
modifications: 2-aminopurine at position 18 of strand 1 (written as A)
Kd [1]: 0.024 µM

binding result [2]: binds
binding result [3]: binds
B2: Bacillus subtilis processivity clamp DnaN (natural protein, B. subtilis, UniProt P05649 1-378, looked up)
chain: MKFTIQKDRLVESVQDVLKAVSSRTTIPILTGIKIVASDDGVSFTGSDSDISIESFIPKEEGDKEIVTIEQPGSIVLQARFFSEIVKKLPMATVEIEVQNQYLTIIRSGKAEFNLNGLDADEYPHLPQIEEHHAIQIPTDLLKNLIRQTVFAVSTSETRPILTGVNWKVEQSELLCTATDSHRLALRKAKLDIPEDRSYNVVIPGKSLTELSKILDDNQELVDIVITETQVLFKAKNVLFFSRLLDGNYPDTTSLIPQDSKTEIIVNTKEFLQAIDRASLLAREGRNNVVKLSAKPAESIEISSNSPEIGKVVEAIVADQIEGEELNISFSPKYMLDALKVLEGAEIRVSFTGAMRPFLIRTPNDETIVQLILPVRTY
